Results: the Human Domainome abundance scans (Beltran et al. 2025)
± gives the uncertainty stated by the source.

B1: COUP transcription factor 1, residues 83 to 159; numbered along this chain, P10589 (parent)
chain: HIECVVCGDKSSGKHYGQFTCEGCKSFFKRSVRRNLTYTCRANRNCPIDQHHRNQCQYCRLKKCLKVGMRREAVQRG
B2: Neutrophil cytosol factor 2, residues 456 to 514; numbered along this chain, P19878 (parent)
chain: LKKGSQVEALFSYEATQPEDLEFQEGDIILVLSKVNEEWLEGECKGKVGIFPKVFVEDC

Variants of: B1
Test: abundance fitness (aPCA) (normalised: wild type 0, dead -1); higher = more abundant; growth selection in yeast, the domain comes from the species named
Conditions: Homo sapiens

Abundance fitness of substitutions, site by site:
M69: I -0.484 ± 0.099; Q -0.831 ± 0.11; P -0.661 ± 0.097; C -0.38 ± 0.11; G -0.711 ± 0.053; E -0.723 ± 0.083; Y -0.77 ± 0.16; N -0.864 ± 0.19; R -0.737 ± 0.058; T -0.719 ± 0.095; W -0.629 ± 0.057; A -0.943 ± 0.094; H -1.08 ± 0.26; L -0.027 ± 0.035; D -1.06 ± 0.22; S -0.783 ± 0.079
K66: V 0.041 ± 0.035; A 0.003 ± 0.037; Q 0.055 ± 0.052; S 0.074 ± 0.036; G -0.09 ± 0.034; F -0.013 ± 0.066; L -0.032 ± 0.038; N 0.058 ± 0.062; P -0.785 ± 0.11; H -0.103 ± 0.068; Y -0.033 ± 0.058; T 0.025 ± 0.046; E 0.02 ± 0.044; M 0.055 ± 0.043; I -0.079 ± 0.061; R -0.021 ± 0.034; C -0.229 ± 0.056
R71: F 0.016 ± 0.066; H -0.103 ± 0.084; L -0.039 ± 0.038; M 0.151 ± 0.045; W -0.085 ± 0.045; A 0.007 ± 0.035; G -0.083 ± 0.034; D 0.017 ± 0.056; C -0.062 ± 0.062; N -0.034 ± 0.062; P 0.023 ± 0.052; I 0.084 ± 0.057; Y 0.089 ± 0.062; Q 0.049 ± 0.047; K 0.104 ± 0.049; V -0.019 ± 0.037; S 0.018 ± 0.037; T 0.02 ± 0.045
A73: D 0.112 ± 0.054; L -0.04 ± 0.036; K -0.183 ± 0.056; P -0.11 ± 0.05; G -0.025 ± 0.031; Q 0.063 ± 0.046; M -0.065 ± 0.045; R -0.275 ± 0.038; I -0.239 ± 0.092; T -0.034 ± 0.048; H 0.038 ± 0.064; S -0.02 ± 0.039; F 0.02 ± 0.061; Y -0.061 ± 0.068; V -0.052 ± 0.037; N 0.064 ± 0.065
G68: T -0.677 ± 0.075; H -0.775 ± 0.18; V -0.671 ± 0.059; K -0.747 ± 0.099; R -0.65 ± 0.049; S -0.593 ± 0.068; M -0.624 ± 0.084; I -0.494 ± 0.1; A -0.729 ± 0.069; W -0.666 ± 0.085; Q -0.731 ± 0.1; D -0.728 ± 0.11; Y -0.436 ± 0.12; N -0.211 ± 0.085; P -0.939 ± 0.15; F -0.609 ± 0.12; L -0.572 ± 0.064; C -0.597 ± 0.094; E -0.524 ± 0.06
V67: Q 0.036 ± 0.046; L -0.118 ± 0.038; K -0.127 ± 0.046; R -0.16 ± 0.037; S -0.117 ± 0.045; W -0.325 ± 0.053; P -0.953 ± 0.14; M 0.099 ± 0.045; G -0.26 ± 0.039; F -0.115 ± 0.067; Y -0.18 ± 0.093; N -0.125 ± 0.072; A -0.099 ± 0.043; I -0.093 ± 0.07; H -0.157 ± 0.088; E 0.013 ± 0.04; D -0.398 ± 0.11; C -0.088 ± 0.069
E72: T -0.283 ± 0.056; Q -0.319 ± 0.055; I -0.325 ± 0.085; L -0.317 ± 0.044; C -0.337 ± 0.064; M -0.262 ± 0.052; P -0.418 ± 0.076; G -0.258 ± 0.038; W -0.248 ± 0.05; Y -0.177 ± 0.078; S -0.252 ± 0.044; F -0.316 ± 0.078; D -0.002 ± 0.06; A -0.237 ± 0.048
R76: V -0.009 ± 0.045; W 0.007 ± 0.051; T 0.025 ± 0.051; A -0.13 ± 0.045; S -0.048 ± 0.046; Y 0.046 ± 0.075; H 0.094 ± 0.083; G 0.161 ± 0.034; L 0.024 ± 0.045; N 0.123 ± 0.063; M -0.047 ± 0.058; D 0.221 ± 0.066; P -0.197 ± 0.07; C 0.082 ± 0.068; E 0.11 ± 0.047; Q 0.083 ± 0.055; F 0.097 ± 0.1
Q75: H 0.222 ± 0.071; R -0.159 ± 0.034; F -0.026 ± 0.07; A 0.125 ± 0.036; C -0.07 ± 0.055; L -0.007 ± 0.036; Y -0.219 ± 0.093; G 0.084 ± 0.032; N -0.115 ± 0.083; K -0.071 ± 0.052; D 0.211 ± 0.054; W -0.119 ± 0.044; S -0.023 ± 0.04; I -0.077 ± 0.059; P 0.034 ± 0.058; M -0.114 ± 0.052; E 0.104 ± 0.04
L65: A -0.228 ± 0.044; V -0.019 ± 0.035; N -0.322 ± 0.089; G -0.392 ± 0.039; H 0.102 ± 0.07; C -0.265 ± 0.06; Y -0.069 ± 0.069; Q 0.029 ± 0.048; F -0.039 ± 0.078; S -0.472 ± 0.059; M -0.069 ± 0.047; T -0.133 ± 0.052; D 0.015 ± 0.055; K -0.342 ± 0.06; R -0.497 ± 0.044; E 0.06 ± 0.04
C64: Y -0.537 ± 0.12
G77: T -0.016 ± 0.07; M -0.017 ± 0.12; Q 0.304 ± 0.075; V -0.041 ± 0.043; Y -0.257 ± 0.14; F -0.317 ± 0.18; K 0.101 ± 0.14; N -0.023 ± 0.093; W -0.23 ± 0.074; A 0.12 ± 0.061; P -0.013 ± 0.071; D 0.117 ± 0.093; S 0.064 ± 0.052; E 0.06 ± 0.1; L -0.095 ± 0.064; I -0.042 ± 0.11; C -0.096 ± 0.069; R -0.058 ± 0.046; H -0.004 ± 0.13
V74: I -0.292 ± 0.072; Y -0.353 ± 0.079; C -0.032 ± 0.052; T -0.112 ± 0.053; L -0.224 ± 0.04; S -0.199 ± 0.044; H -0.104 ± 0.084; F -0.175 ± 0.06; G -0.102 ± 0.034; A 0.028 ± 0.041; N -0.061 ± 0.065; K -0.264 ± 0.059; E -0.004 ± 0.042; P -0.151 ± 0.076; R -0.449 ± 0.044; W -0.3 ± 0.057; D -0.065 ± 0.056; M -0.185 ± 0.055; Q -0.063 ± 0.048
R70: Q 0.112 ± 0.053; P -0.161 ± 0.061; A 0.023 ± 0.038; S 0.144 ± 0.039; L 0.07 ± 0.056; V 0.032 ± 0.056; T 0.023 ± 0.048; M 0.173 ± 0.095; F 0.002 ± 0.12; I 0.046 ± 0.16; G -0.152 ± 0.033; H -0.004 ± 0.085; C -0.051 ± 0.067; N 0.071 ± 0.092; Y -0.323 ± 0.12; D 0.163 ± 0.052; K 0.153 ± 0.05; E 0.135 ± 0.038

Variants of: B2
Test: as above
Conditions: Homo sapiens

Abundance fitness, by site and new letter:
S5: L -0.289 ± 0.12; P -0.804 ± 0.33; F 0.011 ± 0.13; K 0.309 ± 0.23; Y 0.219 ± 0.19; E 0.099 ± 0.37; T -0.037 ± 0.23; I -0.299 ± 0.3; A 0.353 ± 0.16; G -1.17 ± 0.48; R -0.116 ± 0.14; Q -0.365 ± 0.27; V -0.056 ± 0.13; M 0.216 ± 0.18; D 0.797 ± 0.15
G4: R -0.535 ± 0.27; C -0.371 ± 0.23; L -0.83 ± 0.21; F -0.312 ± 0.49; D -0.031 ± 0.22; W -0.84 ± 0.41; A -0.695 ± 0.29; V -0.452 ± 0.17; K -0.193 ± 0.45; Y -0.89 ± 0.45; I 0.575 ± 0.31; P -0.208 ± 0.25
V7: D -0.907 ± 0.49; I -0.805 ± 0.4; A -0.662 ± 0.29; P -0.506 ± 0.27; W -0.999 ± 0.48; F -0.414 ± 0.43; L -0.633 ± 0.24; S -0.287 ± 0.17; T 0.249 ± 0.18; M -0.99 ± 0.5; G -0.67 ± 0.27; R -0.343 ± 0.2
E8: F 0.452 ± 0.17; I 0.744 ± 0.2; P -0.363 ± 0.24; R 1.16 ± 0.095; G -0.093 ± 0.28; M 0.684 ± 0.12; T 0.126 ± 0.25; A 0.164 ± 0.23; S 0.048 ± 0.12; K 1.17 ± 0.17; Q 0.472 ± 0.15; L 0.433 ± 0.1; N 0.524 ± 0.31
K3: R -0.397 ± 0.22; V -0.033 ± 0.14; S -0.474 ± 0.25; I 0.207 ± 0.19; A -0.483 ± 0.23; F -0.153 ± 0.28; D -0.366 ± 0.24; L -0.337 ± 0.14; E -0.067 ± 0.23; W -0.781 ± 0.47; Y -0.479 ± 0.37; P 0.347 ± 0.13; T -0.094 ± 0.21; C 0.761 ± 0.34; M -0.005 ± 0.36; G -0.714 ± 0.38
Q6: R 0.028 ± 0.11; W 0.367 ± 0.16; M 0.023 ± 0.15; C -0.337 ± 0.3; P -0.924 ± 0.37; V 0.538 ± 0.12; G -0.72 ± 0.27; I -0.133 ± 0.36; K 0.157 ± 0.14; L 0.437 ± 0.095; A -0.717 ± 0.27; H 0.427 ± 0.25; E -0.158 ± 0.18; S -0.667 ± 0.27; F 0.714 ± 0.14
K2: H 0.249 ± 0.3; L -0.46 ± 0.2; G -0.307 ± 0.17; P 0.067 ± 0.21; T 0.427 ± 0.26; W -0.109 ± 0.27; A 0.146 ± 0.19; V -0.337 ± 0.45; E -0.415 ± 0.32; R 0.002 ± 0.13; N 0.141 ± 0.32; M -0.593 ± 0.29; F 0.093 ± 0.48; S -0.347 ± 0.22
L1: I 0.114 ± 0.29; Y 0.581 ± 0.32; E 0.143 ± 0.28; G -0.053 ± 0.19; N -0.024 ± 0.49; M 0.035 ± 0.27; S -0.217 ± 0.21; K -0.529 ± 0.49; W 0.161 ± 0.2; R 0.08 ± 0.27; F 0.593 ± 0.23; V -0.294 ± 0.34
